B1: E3 ubiquitin-protein ligase LNX (Homo sapiens), Q8TBB1 (parent)
chain: MNQPESANDPEPLCAVCGQAHSLEENHFYSYPEEVDDDLICHICLQALLDPLDTPCGHTYCTLCLTNFLVEKDFCPMDRKPLVLQHCKKSSILVNKLLNKLLVTCPFREHCTQVLQRCDLEHHFQTSCKGASHYGLTKDRKRRSQDGCPDGCASLTATAPSPEVSAAATISLMTDEPGLDNPAYVSSAEDGQPAISPVDSGRSNRTRARPFERSTIRSRSFKKINRALSVLRRTKSGSAVANHADQGRENSENTTAPEVFPRLYHLIPDGEITSIKINRVDPSESLSIRLVGGSETPLVHIIIQHIYRDGVIARDGRLLPGDIILKVNGMDISNVPHNYAVRLLRQPCQVLWLTVMREQKFRSRNNGQAPDAYRPRDDSFHVILNKSSPEEQLGIKLVRKVDEPGVFIFNVLDGGVAYRHGQLEENDRVLAINGHDLRYGSPESAAHLIQASERRVHLVVSRQVRQRSPDIFQEAGWNSNGSWSPGPGERSNTPKPLHPTITCHEKVVNIQKDPGESLGMTVAGGASHREWDLPIYVISVEPGGVISRDGRIKTGDILLNVDGVELTEVSRSEAVALLKRTSSSIVLKALEVKEYEPQEDCSSPAALDSNHNMAPPSDWSPSWVMWLELPRCLYNCKDIVLRRNTAGSLGFCIVGGYEEYNGNKPFFIKSIVEGTPAYNDGRIRCGDILLAVNGRSTSGMIHACLARLLKELKGRITLTIVSWPGTFL

Variants of: B1
Settings: with srsf1_human SRSF1, Q07955
Chain of srsf1_human SRSF1, Q07955 (Q07955 whole entry): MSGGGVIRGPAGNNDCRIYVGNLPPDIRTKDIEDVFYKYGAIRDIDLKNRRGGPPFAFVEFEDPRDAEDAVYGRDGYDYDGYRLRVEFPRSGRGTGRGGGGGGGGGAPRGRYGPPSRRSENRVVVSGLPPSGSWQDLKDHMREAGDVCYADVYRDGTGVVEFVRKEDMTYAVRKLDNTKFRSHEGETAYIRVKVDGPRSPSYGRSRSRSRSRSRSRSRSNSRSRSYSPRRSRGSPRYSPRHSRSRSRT

Row | Variant | effect of a mutation on the interaction
1 | E295K | disrupting interaction strength

Variants of: B1
Settings: with pmgt1_human POMGNT1, Q8WZA1
Chain of pmgt1_human POMGNT1, Q8WZA1 (Q8WZA1 whole entry): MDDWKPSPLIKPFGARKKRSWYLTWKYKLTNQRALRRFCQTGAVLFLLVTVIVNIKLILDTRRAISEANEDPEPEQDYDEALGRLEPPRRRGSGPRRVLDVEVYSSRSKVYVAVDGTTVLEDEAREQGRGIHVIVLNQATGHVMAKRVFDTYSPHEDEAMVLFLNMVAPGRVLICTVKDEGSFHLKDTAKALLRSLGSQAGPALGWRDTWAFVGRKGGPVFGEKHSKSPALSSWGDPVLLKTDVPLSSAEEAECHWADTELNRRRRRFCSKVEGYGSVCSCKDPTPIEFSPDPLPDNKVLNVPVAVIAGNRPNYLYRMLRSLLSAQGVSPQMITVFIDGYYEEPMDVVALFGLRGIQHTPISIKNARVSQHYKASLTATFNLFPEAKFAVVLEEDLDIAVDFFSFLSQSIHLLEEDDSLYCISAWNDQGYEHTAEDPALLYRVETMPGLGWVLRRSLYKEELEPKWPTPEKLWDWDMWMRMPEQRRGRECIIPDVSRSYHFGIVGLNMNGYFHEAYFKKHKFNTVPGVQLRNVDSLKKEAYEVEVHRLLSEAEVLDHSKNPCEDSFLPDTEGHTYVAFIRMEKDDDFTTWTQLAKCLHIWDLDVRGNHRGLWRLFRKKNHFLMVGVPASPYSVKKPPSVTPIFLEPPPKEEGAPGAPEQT

Row | Variant | effect of a mutation on the interaction
2 | E295K | disrupting interaction strength

Variants of: B1
Settings: with nagk_human NAGK

Row | Variant | effect of a mutation on the interaction
3 | E295K | disrupting interaction strength

Variants of: B1
Settings: with cep72_human CEP72, Q9P209
Chain of cep72_human CEP72, Q9P209 (Q9P209 whole entry): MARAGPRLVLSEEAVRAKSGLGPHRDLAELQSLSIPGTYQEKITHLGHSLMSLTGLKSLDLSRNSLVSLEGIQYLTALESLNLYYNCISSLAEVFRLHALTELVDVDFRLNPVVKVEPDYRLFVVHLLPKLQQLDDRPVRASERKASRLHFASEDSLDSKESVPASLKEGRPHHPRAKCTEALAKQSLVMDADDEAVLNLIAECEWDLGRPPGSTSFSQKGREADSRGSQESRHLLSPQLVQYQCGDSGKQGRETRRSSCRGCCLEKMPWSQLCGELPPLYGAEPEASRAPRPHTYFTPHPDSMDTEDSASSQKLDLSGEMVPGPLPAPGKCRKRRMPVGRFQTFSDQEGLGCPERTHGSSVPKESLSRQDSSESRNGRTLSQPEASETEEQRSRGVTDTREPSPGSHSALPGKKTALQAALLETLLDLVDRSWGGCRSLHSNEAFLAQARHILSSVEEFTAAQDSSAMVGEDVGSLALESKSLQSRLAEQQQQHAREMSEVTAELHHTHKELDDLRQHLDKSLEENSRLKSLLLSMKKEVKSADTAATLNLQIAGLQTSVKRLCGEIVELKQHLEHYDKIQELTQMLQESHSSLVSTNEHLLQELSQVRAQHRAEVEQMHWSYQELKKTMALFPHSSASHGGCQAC

Row | Variant | effect of a mutation on the interaction
4 | E295K | disrupting interaction strength

Variants of: B1
Settings: with mk09_human MAPK9, P45984

Row | Variant | effect of a mutation on the interaction
5 | E295K | with no effect

Variants of: B1
Settings: with grb2_human GRB2, P62993
Chain of grb2_human GRB2, P62993 (P62993 whole entry, looked up): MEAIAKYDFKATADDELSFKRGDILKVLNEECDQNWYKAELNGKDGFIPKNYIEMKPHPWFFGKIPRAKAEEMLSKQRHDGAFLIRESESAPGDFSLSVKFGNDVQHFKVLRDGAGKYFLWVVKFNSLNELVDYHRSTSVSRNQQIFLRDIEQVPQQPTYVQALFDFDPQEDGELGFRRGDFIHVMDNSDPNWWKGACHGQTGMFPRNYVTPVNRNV

Row | Variant | effect of a mutation on the interaction
6 | E295K | disrupting interaction strength

Variants of: B1
Settings: with ldoc1_human LDOC1, O95751
Chain of ldoc1_human LDOC1, O95751 (O95751 whole entry): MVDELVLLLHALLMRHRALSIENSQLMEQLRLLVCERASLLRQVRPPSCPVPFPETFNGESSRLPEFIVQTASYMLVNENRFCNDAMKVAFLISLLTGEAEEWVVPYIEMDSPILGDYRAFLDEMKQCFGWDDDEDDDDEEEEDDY

Row | Variant | effect of a mutation on the interaction
7 | E295K | disrupting interaction strength

Variants of: B1
Settings: with kcd17_human KCTD17, Q8N5Z5
Chain of kcd17_human KCTD17, Q8N5Z5 (Q8N5Z5 whole entry): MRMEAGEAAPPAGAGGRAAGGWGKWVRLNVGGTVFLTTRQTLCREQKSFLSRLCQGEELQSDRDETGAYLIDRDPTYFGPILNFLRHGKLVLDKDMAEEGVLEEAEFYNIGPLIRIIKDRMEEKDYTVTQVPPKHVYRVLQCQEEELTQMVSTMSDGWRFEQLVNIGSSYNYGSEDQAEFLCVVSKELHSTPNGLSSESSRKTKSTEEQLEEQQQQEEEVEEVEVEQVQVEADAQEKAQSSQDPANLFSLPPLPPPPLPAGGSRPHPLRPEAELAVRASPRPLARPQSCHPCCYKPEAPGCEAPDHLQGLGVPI

Row | Variant | effect of a mutation on the interaction
8 | E295K | disrupting interaction strength

Variants of: B1
Settings: with rpia_human RPIA

Row | Variant | effect of a mutation on the interaction
9 | E295K | disrupting interaction strength

Variants of: B1
Settings: with tera_human VCP

Row | Variant | effect of a mutation on the interaction
10 | E295K | disrupting interaction strength

Variants of: B1
Settings: with KRT15, P19012
Chain of KRT15, P19012 (P19012 whole entry): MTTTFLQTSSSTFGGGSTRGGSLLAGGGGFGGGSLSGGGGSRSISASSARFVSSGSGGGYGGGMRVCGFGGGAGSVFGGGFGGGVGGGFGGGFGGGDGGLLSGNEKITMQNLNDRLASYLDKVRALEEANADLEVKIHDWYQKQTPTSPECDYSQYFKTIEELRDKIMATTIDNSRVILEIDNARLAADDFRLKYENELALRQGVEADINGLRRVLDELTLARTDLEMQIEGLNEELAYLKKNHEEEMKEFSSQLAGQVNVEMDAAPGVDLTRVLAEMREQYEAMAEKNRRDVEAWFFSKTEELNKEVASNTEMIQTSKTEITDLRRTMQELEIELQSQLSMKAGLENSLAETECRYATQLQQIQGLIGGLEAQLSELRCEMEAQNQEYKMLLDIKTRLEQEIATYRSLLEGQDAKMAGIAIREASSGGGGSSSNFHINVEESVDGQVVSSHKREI

Row | Variant | effect of a mutation on the interaction
11 | E295K | disrupting interaction strength

Variants of: B1
Settings: with rop1a_human ROPN1, Q9HAT0
Chain of rop1a_human ROPN1, Q9HAT0 (Q9HAT0 whole entry): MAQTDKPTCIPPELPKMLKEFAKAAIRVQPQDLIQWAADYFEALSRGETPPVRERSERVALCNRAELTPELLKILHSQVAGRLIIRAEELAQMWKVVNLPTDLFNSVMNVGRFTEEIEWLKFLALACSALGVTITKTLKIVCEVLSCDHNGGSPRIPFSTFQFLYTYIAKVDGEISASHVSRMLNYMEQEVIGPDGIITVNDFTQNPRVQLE

Row | Variant | effect of a mutation on the interaction
12 | E295K | disrupting interaction strength

Variants of: B1
Settings: with nt2na_human NOTCH2NLA

Row | Variant | effect of a mutation on the interaction
13 | E295K | disrupting interaction strength

Variants of: B1
Settings: with mt21a_human METTL21A

Row | Variant | effect of a mutation on the interaction
14 | E295K | disrupting interaction strength

Variants of: B1
Settings: with zbt8a_human ZBTB8A

Row | Variant | effect of a mutation on the interaction
15 | E295K | disrupting interaction strength

Variants of: B1
Settings: with dnpep_human DNPEP

Row | Variant | effect of a mutation on the interaction
16 | E295K | disrupting interaction strength

Variants of: B1
Settings: with clk2_human CLK2, P49760
Chain of clk2_human CLK2, P49760 (P49760 whole entry, looked up): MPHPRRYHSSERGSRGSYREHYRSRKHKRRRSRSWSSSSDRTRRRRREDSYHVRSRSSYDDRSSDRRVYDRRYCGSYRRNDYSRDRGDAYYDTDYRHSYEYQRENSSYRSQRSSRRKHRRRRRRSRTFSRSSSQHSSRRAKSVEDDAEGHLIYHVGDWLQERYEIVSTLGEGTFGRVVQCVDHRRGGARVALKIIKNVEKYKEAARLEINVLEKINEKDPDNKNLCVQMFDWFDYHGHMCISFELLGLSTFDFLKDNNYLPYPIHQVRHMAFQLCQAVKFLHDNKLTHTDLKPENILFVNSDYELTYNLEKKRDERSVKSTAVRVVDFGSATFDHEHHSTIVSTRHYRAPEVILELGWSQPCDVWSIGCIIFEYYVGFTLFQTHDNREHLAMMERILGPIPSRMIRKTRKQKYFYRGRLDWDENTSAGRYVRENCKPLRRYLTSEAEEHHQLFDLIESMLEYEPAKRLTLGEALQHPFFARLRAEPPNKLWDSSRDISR

Row | Variant | effect of a mutation on the interaction
17 | E295K | disrupting interaction strength

Variants of: B1
Settings: with sat1_human SAT1, P21673
Chain of sat1_human SAT1, P21673 (P21673 whole entry): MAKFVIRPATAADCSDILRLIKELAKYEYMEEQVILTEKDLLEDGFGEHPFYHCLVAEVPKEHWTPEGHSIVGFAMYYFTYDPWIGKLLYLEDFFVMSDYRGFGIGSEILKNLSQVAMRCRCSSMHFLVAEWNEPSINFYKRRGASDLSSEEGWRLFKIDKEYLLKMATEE

Row | Variant | effect of a mutation on the interaction
18 | E295K | disrupting interaction strength

Variants of: B1
Settings: with neca2_human NECAB2, Q7Z6G3
Chain of neca2_human NECAB2, Q7Z6G3 (Q7Z6G3 whole entry): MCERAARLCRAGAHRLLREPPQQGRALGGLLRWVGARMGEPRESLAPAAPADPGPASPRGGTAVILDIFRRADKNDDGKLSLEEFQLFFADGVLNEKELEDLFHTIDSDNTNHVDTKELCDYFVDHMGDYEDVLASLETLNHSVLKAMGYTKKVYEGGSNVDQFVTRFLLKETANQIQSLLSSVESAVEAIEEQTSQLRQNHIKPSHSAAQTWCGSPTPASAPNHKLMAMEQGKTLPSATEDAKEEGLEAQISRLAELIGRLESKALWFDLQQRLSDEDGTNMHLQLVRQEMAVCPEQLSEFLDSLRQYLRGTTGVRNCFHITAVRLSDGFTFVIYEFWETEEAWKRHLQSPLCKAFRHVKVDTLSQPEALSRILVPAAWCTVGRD

Row | Variant | effect of a mutation on the interaction
19 | E295K | disrupting interaction strength

Variants of: B1
Settings: with tri23_human TRIM23, P36406

Row | Variant | effect of a mutation on the interaction
20 | E295K | disrupting interaction strength

Variants of: B1
Settings: with mr1l1_human MRFAP1L1, Q96HT8
Chain of mr1l1_human MRFAP1L1, Q96HT8 (Q96HT8 whole entry): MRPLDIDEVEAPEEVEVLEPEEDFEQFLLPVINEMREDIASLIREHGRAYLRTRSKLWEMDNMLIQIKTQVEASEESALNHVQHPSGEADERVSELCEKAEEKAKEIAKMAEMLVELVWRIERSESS

Row | Variant | effect of a mutation on the interaction
21 | E295K | disrupting interaction strength

Variants of: B1
Settings: with ndk7_human NME7, Q9Y5B8
Chain of ndk7_human NME7, Q9Y5B8 (Q9Y5B8 whole entry): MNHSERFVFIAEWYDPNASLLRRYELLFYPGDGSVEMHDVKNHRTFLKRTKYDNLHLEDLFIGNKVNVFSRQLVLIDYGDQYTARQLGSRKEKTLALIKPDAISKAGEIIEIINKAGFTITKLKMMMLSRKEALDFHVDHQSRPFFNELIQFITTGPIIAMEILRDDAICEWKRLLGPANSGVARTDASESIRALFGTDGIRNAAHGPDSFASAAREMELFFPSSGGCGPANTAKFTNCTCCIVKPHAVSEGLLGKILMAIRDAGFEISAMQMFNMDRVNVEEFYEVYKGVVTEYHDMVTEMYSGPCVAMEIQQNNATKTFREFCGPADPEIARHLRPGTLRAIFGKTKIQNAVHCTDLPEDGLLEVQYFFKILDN

Row | Variant | effect of a mutation on the interaction
22 | E295K | disrupting interaction strength

— IntAct's records for PubMed 29892012
